{
  "source": "the RNAGym collection of RNA variant scans (doi:10.1073/pnas.2313332121)",
  "parents": {"B1": {"name": "TPR t1 (parent)", "chain": "GACCAAUCUGCCCUCAGAGCUCGAGAACAUCUUCGGAUGCAGAGGAGGCAGGCUUCGGUGGCGCGAUAGCGCCAACGUCCUCAACCUCCAAUGCAUCCCACCACAUGAUGAUGCCUGAAGAGCCUUGGUUUUUUG"}},
  "data": [
    {"variants_of": "B1", "assay": "polymerase ribozyme fitness, log enrichment relative to wild type (log ratio); higher = more active; in vitro selection for triplet polymerase activity", "procedure,_shortened": "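A single round of triplicate in vitro selection, including frozen incubation at −7 °C, was applied to PCR-built, transcribed mutant libraries of each subunit of a heterodimeric triplet polymerase ribozyme. Illumina sequencing of input and output libraries retained genotypes with ≥10 input reads and ≥1 read per output. Fitness is the base-2 logarithm of genotype enrichment divided by wild-type enrichment, from inverse-variance-weighted replicate averages.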", "values": [
      {"variant": "GUCCAAUUUGCCCUCAGAGCUCGAGAACAUCUUCGGAUGCAGAGAAGGCAGGCUUCGGUGGCGCGAUAGCGCCAACGUCCUCAACCUCCAAUGCGUCCCACCACAUGAUGAUGCCUGAAAAGCCUUGGUUUUUUG", "note": "[A2U C8U G45A A95G G120A]", "polymerase ribozyme fitness (log ratio)": -0.217},
      {"variant": "GUCCAAUCUGUCCUCAGAGCUCGAGAACAUCUUCGGAUGCAGAGGAGGCAGGCUUCGGUGGCGCGAUAGCGCCAACGUCCUCAACCUCCAAUGCAUGCCACCACAUGAUCAUGUCUGAACAGCCUUGGUUUUUUG", "note": "[A2U C11U C97G G110C C114U G120C]", "polymerase ribozyme fitness (log ratio)": -6.26},
      {"variant": "GUCCAAUCUGCCCUCAGAGCUCGAGAACAUCUUCGGAUGCAGAGGAGGCUGGCUUUGGUGGCGCGAUAGCGCCAACGUCCUCAACCUCCAAUGCAUCCCACCACAUGAUGAUGCCUGAAGAGCCUUGGUUUUUUG", "note": "[A2U A50U C56U]", "polymerase ribozyme fitness (log ratio)": -3.13},
      {"variant": "GUCCAAUAUGCCCUCAGAGCUCGAGAACAUCUUCGGAUGCAGAGGAGGCAGGCUUCGGUGGCGCGAUAGCGCCUACGUCCUCAACCUCCAAUGCUUCCCACCACAUGAUAAUGCCUGAAGAGCCUUUGUCUUUUG", "note": "[A2U C8A A74U A95U G110A G127U U130C]", "polymerase ribozyme fitness (log ratio)": -3.91},
      {"variant": "GUCCAAUCUGUCCUCAGAGCUCGAGAACAUCUUCGGAUGCAGAGGAGGCAGGCUUCGGUGGCGCGAUAGCGCCAACGUACUCAACCUCCAAUGCAUCCCACCACAUGAUGAUGCCUGAAGAGACUUGGUUUUUUG", "note": "[A2U C11U C79A C123A]", "polymerase ribozyme fitness (log ratio)": -0.946},
      {"variant": "GUCCAAUCUGCCCUCAGAGCUCGAGAACAUCUUCGGAUGCAGAGGAGGCUGGCUUCGGUGGCGCGAUAGCGGCAACGUCCUCAACCUCCAAUGCAUCCCACCACAUGAUGAUGCCUGAAGAGCCUUGGUUUUUUG", "note": "[A2U A50U C72G]", "polymerase ribozyme fitness (log ratio)": -4.02},
      {"variant": "GUCCAAUGUGCCCUCAGAGCUCGAGAACAUCUUCGUAUGCAGAGAAGGCAGGCUUCGGUGGCGCGAUAGCGCCAACGUCCUCAACCUCCAAUGCAUCCCACUACAUGAUGAUGCCUGAAAAGCCUUCGUUUUUUG", "note": "[A2U C8G G36U G45A C102U G120A G127C]", "polymerase ribozyme fitness (log ratio)": -4.41},
      {"variant": "GUCCAAUCUGCCCUCAGAGCUCGAGAACAUCUUCGGGUGCAGAGGAGGCAGGCUUCGGUGGCGCGAUAGCGCCAAGGUCCUCAACCUCCAAUGCAUCCCACCACAUGAUGAUGCCUGAAGAGCCUUGGUUUUUUG", "note": "[A2U A37G C76G]", "polymerase ribozyme fitness (log ratio)": -3.35},
      {"variant": "GUCCAAUCUGCCCUCAGAGCUCGAGAACAUCUUCGGAUGCAGAGGAGGCAGGCUUCGGUGGCGCGAUAGCGCCUACGUCCUUAACCUCCAAUGCAUCCCACCACAUGAUGAUGCCUGAAGAGCCUUGGUUUUUUG", "note": "[A2U A74U C82U]", "polymerase ribozyme fitness (log ratio)": -3.62},
      {"variant": "GUGCAAUCUGCCCUCAGAGCUCGAGAACAUCUUCGGAUGCAGAGGAGGCAGGCUUCGAUGGCGCGAUAGCGCCAACGUCCUCAACCUCCAAUGCAUCCCACCACAUGAUGAUGCCUGAAGAGCCUUGGUUUUUUG", "note": "[A2U C3G G58A]", "polymerase ribozyme fitness (log ratio)": -2.99},
      {"variant": "GUCCAAUGUGCCCUCAGAGCUCGAGAACAUCUUCGGAUCCAGAGGAGGCAGGCUUCGGUGCCGCGAUAGCGCCAACGUUCUCAACCUCCAAUGCAUCCCAACACAUGAUGAUGCCUGAAGAGCCUUGGUUUUUUG", "note": "[A2U C8G G39C G61C C79U C101A]", "polymerase ribozyme fitness (log ratio)": -4.35},
      {"variant": "GUCUAAUCUGCCCUCAGAGCUCGAGAACAUCUUCGGAUGCAGAGGAGGCAGGCUUCGGUGUCGCGAUAGCGCCAACGUCCUCAACCUCCAAUGCAUCCCAACACAUGAUGAUGCCUGAAGAGCCUUCGUUUUUUG", "note": "[A2U C4U G61U C101A G127C]", "polymerase ribozyme fitness (log ratio)": -3.03},
      {"variant": "GUCCAAUCUGCGCUCAGAGCUCGAGAACAUCUUCGGAUGCAGAGGAGGCAGGCUUCGGUGGCGCGAUAGCGCCAACGUCCUCAACCUCCAAUGCUUCCCACCACAUGAUGAUGCCUGAAGAGCCUUGGUUUUUUG", "note": "[A2U C12G A95U]", "polymerase ribozyme fitness (log ratio)": -2.91},
      {"variant": "GUCCAAUCUGCCCUCAGUGCUCGAGAACAUCUUCGGAUGCAGAGGAGGCAGGCUUCGGUGGCGCGAUAGCGCCAACGUCCUCAACCUCCAAUGCAUCCCACCACAUGAUGAUGCCUGAAGAGCAUUGGGUUUUUG", "note": "[A2U A18U C124A U129G]", "polymerase ribozyme fitness (log ratio)": -2.31},
      {"variant": "GUCCAAUCUGCCCUCAGAGCUCGAGAACAUCUUCGGAUGCAGUGGAGGCAGGGUUCGGUGGCGCGAUAGCGCUAACGUCCUCAACCUCCAAUGCAUCCCACCACAAGAUGAUGCCUGAAGAGCCUUGGUUUUUUG", "note": "[A2U A43U C53G C73U U106A]", "polymerase ribozyme fitness (log ratio)": -7.47},
      {"variant": "GUCCAAUCUGCCCUCAGAGCUCGAGAGCAUCUUCGGAUGCAGAGGAGGCAGGCGUCGGUGGCGCGAUAGCGCCAACGUCCUCAACCUCCAAUGCAUCCCACCACAUGAUGAUGCCUGAAGAGUCUUGGUUUUUUG", "note": "[A2U A27G U54G C123U]", "polymerase ribozyme fitness (log ratio)": -3.79},
      {"variant": "GUCCAAUCUGCCCUCAGAGCUCGAGAGCAUCUUCGGAUCCAGAGGAGGCAGGCUUCGGUGCUGCGAUAGCGCCAACGUCCUCAUCCUCCAAUGCAUCCCACCACAUGAUGAUGCCUGAAGAGCCUUGGUUUUUUG", "note": "[A2U A27G G39C G61C C62U A84U]", "polymerase ribozyme fitness (log ratio)": -7.51},
      {"variant": "GUCCAAUCUGCCCUCAGAGCUCGAGAACAUCUUCGGAUGCAGAGGAGGCCGGCUUCGGUGGCGCGAUAGUGCCAACGUCCUCAACCUCCAAUGCAUCCCAUCACAUGAUGAUGCCUGAAGAGCCUUGGUUUUUUG", "note": "[A2U A50C C70U C101U]", "polymerase ribozyme fitness (log ratio)": -3.18},
      {"variant": "GUCCAAUAUGCCCUCAGAGCUCGAGAACAUCUUCGGAUGCAGAGGAGGCAGGCUUCGGUGGCGCGAUAGCGCCAACGUCCUCAACCUCCAAUGCAUCCCUCCACAUGAUGAUGCCUGAAGAGCCUUGGUUUUUUG", "note": "[A2U C8A A100U]", "polymerase ribozyme fitness (log ratio)": -1.86},
      {"variant": "GUCGAAUCUGCCCUCAGAGCUGGAGAACAUCCUCGGAUGCAGAGGAGGCAGGCUUCGGUGGCGCGAUAGAGCCAACGUCCUCAACCUCCAAUGCAUCCCACCACAUGAUGUUGCCUGAAGAGCCUUGCUUUUUUG", "note": "[A2U C4G C22G U32C C70A A111U G128C]", "polymerase ribozyme fitness (log ratio)": -4.89},
      {"variant": "GUCCAAUCUGCCCUCAGAGCUCGAGAACAUCUUCGGAUGCAGCGGAGGCAGGCUUCGGAGGCGCGAUAGCGCCAACGUCCUCAACCUCCAAUGCAUCCCACCACAUGAUGAUGCCUGAAGAGCCUUGGUUUUUUG", "note": "[A2U A43C U59A]", "polymerase ribozyme fitness (log ratio)": -5.8}
    ]}
  ]
}
